B1: bsAb19139D (bispecific antibody, V domains shown)
VH 1: QVQLVESGGGVVQPGRSLRLSCTASGFTFSSYAMYWVRQAPGKGLEWVSVIYYDGSYKYYADSVKGRFTISRDNSKNTLYLQMDSLRAEDTAVYYCASYNWNYWYFDFWGRGTLVTVSS
VH 2: QVQLVESGGGVVQPGGSLRLSCAASGFTFSTYDIHWVRQAPGKGLEWVAVISFDGSNRNYGDSVKGRFTISRDNSDNTLFLEMNNLRFEDTAVYYCAKEGYGVDFQHWGQGTLVTVSS
VL: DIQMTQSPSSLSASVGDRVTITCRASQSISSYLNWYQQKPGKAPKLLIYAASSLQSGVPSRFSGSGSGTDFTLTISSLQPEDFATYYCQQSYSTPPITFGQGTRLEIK
notes: two different heavy chains with a common light chain
B2: bsAb19142D (bispecific antibody, V domains shown)
VH 1: B1 VH 1
VH 2: EVQLVESGGGLVQPGGSLRLSCAASGLTFSSYEMNWVRQAPGKGLEWVSHISSAGSTKYYADSVKGRFTISRDNAKNSLFLQMNSLRAEDTAIYYCAGYNYAYYYFGVDVWGQGTTVTVSS
VL: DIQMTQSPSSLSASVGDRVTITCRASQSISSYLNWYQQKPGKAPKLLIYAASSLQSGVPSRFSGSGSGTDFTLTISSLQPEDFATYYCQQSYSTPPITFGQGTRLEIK
notes: common light chain
B3: bsAb19140D (bispecific antibody, V domains shown)
VH 1: B1 VH 1
VH 2: QVQLQESGPGLVKPSETLSLTCTVSGGSISNYYWTWIRQPPGKGLEWIGHISNSGTTNYNPSLKSRVTISVDTSKNQFSLKLTSVTAADTAVYYCARLPLGIAAVDTDYYYYFGMDVWGQGTTVTVSS
VL: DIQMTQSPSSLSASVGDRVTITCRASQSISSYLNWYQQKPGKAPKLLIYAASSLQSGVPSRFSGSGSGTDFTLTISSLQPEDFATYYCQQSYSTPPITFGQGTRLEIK
notes: common light chain
B4: bsAb19144D (bispecific antibody, V domains shown)
VH 1: B1 VH 1
VH 2: QVQLVQSGAEVKKPGASVKVSCKASGYTFTSLGISWVRQAPGQGLEWMGWISAYSGNRDYAQKFQGRVTMTTDTSTSTAYMELRSLRSDDTAVYYCARSLRFDYWGQGTLVTVSS
VL: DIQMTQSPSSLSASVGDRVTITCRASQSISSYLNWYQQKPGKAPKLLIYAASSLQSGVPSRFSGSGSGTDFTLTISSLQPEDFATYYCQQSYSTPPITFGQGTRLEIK
notes: common light chain
B5: bsAb19145D (bispecific antibody, V domains shown)
VH 1: B1 VH 1
VH 2: EVQLVESGGGLVQPGRSLRLSCAASGFTLDDFAMHWVRQAPGKGLEWVSGISWNSGNIGYADSVKGRFTISRDNARNSLYLQMNSLRAEDTALYYCTSGYYLYYAMDVWGQGTTVTVSS
VL: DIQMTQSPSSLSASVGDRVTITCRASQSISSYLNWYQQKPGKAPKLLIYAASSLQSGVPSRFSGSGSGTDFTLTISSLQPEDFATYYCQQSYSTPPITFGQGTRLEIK
notes: common light chain
B6: bsAb19141D (bispecific antibody, V domains shown)
VH 1: B1 VH 1
VH 2: EVQLVESGGGVVRPGGSLRLSCTASGFTFDDYGMSWVRQAPGKGLEWVSGINWNGGRTEYADAVKGRFIISRDNAKNSLYLQMNSLRAEDTALYFCARTELRWDYWGQGTLVTVSS
VL: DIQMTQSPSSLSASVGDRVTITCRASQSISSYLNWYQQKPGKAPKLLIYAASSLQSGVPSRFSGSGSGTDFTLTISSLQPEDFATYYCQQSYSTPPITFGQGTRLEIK
notes: common light chain
B7: bsAb19143D (bispecific antibody, V domains shown)
VH 1: B1 VH 1
VH 2: QLQLQESGPGLVKPSETLSLICTVSGGSISSNNYYWGWIRQPPGKGLEWIGNLYGSGSTYYNPSLKSRVTISVDTSKNQFSLKLSFVTAADTAVYHCARWDTNGGAFDIWGQGTMVTVSS
VL: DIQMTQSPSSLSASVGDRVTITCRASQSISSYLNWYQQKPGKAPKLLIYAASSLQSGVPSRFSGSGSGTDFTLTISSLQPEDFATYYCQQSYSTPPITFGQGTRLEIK
notes: common light chain

The target of one test is T1, human LEPR extracellular domain expressed with a C-terminal myc-myc-hexahistidine tag (human, UniProt P48357 22-839).
T1 construct: Monomeric reagent; the whole entry is the construct with its tag; also called hLEPR-MMH; hLEPR.mmh
T1 sequence (P48357 other isoform, or with tags, fused parts or gaps): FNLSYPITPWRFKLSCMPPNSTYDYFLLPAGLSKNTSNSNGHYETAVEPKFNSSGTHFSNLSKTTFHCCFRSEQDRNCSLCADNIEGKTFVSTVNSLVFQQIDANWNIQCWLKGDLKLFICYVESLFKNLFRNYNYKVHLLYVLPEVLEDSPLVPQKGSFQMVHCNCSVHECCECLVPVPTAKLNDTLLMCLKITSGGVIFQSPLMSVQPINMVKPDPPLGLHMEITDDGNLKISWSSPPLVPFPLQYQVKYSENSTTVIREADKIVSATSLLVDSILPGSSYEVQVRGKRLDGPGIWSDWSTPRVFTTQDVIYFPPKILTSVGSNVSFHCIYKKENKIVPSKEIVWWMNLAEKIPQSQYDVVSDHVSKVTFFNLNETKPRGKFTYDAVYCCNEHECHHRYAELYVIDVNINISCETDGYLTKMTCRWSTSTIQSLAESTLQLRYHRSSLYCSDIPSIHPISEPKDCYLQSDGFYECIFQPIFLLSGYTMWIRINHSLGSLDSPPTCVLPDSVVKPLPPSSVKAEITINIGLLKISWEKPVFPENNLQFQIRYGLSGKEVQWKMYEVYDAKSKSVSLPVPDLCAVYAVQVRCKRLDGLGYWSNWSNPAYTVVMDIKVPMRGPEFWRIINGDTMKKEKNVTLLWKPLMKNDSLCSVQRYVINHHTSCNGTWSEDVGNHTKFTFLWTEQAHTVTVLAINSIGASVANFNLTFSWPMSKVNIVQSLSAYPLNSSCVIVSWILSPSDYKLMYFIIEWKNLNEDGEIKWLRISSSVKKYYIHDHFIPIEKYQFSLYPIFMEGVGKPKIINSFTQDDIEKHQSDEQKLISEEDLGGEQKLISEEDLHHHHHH
The test is described as follows: SPR Biacore 4000, bsAb captured by anti-human Fc, 25 C. Here is the method:
(§1) Equilibrium dissociation constants (KD values) for LEPR and GP130 binding to purified anti-LEPR/GP130 bispecific antibodies were determined using a real-time surface plasmon resonance biosensor using a Biacore 4000 instrument. All binding studies were performed in 10 mM HEPES, 150 mM NaCl, 3 mM EDTA, and 0.05% v/v Surfactant Tween-20, pH 7.4 (HBS-ET) running buffer at 25° C. and 37° C. The Biacore sensor surface was first derivatized by amine coupling with a monoclonal mouse anti-human Fc antibody (GE, #BR-1008-39) to capture anti-LEPR/GP130 bispecific antibodies. […] Different concentrations of LEPR or GP130 reagents were first prepared in HBS-ET running buffer (100 nM-3.7 nM; 3-fold serial dilution) and were injected over anti-human Fc captured anti-LEPR/GP130 bispecific antibody surface for 4 minutes at a flow rate of 30 μL/minute, while the dissociation of bispecific antibody bound LEPR or GP130 reagent was monitored for 10 minutes in HBS-ET running buffer. Kinetic association (kₐ) and dissociation (kd) rate constants were determined by fitting the real-time binding sensorgrams to a 1:1 binding model with mass transport limitation using Scrubber 2.0c curve-fitting software. Binding dissociation equilibrium constants (KD) and dissociative half-lives (t ½) were calculated from the kinetic rate constants as: […]
Background: Surface plasmon resonance follows binding to a sensor surface in real time, without labels.
The Kd is the constant that tells how readily two partners part at equilibrium. A low value points to a tighter complex. A word on the koff: it is the rate constant with which the complex falls apart. As a reminder, the kon is the second-order rate constant of association. A lower kon goes with slower complex formation. A word on the t½: it is the time needed for the level to fall by half in the phase considered. A lower t½ goes with rapid decline. Take B1: the “100 nM hLEPR-MMH Bound (RU)” value stood at 41 RU, the Kd was 7.09 nM, the koff was 0.000171 s⁻¹ and the on-rate constant (kon) is 24100 M⁻¹ s⁻¹. This molecule also yielded a t½ of 68 min.

On to B2, for which the “100 nM hLEPR-MMH Bound (RU)” value stood at 46 RU, the Kd amounted to 7.76 nM, the off-rate constant (koff) was determined as 0.000175 s⁻¹ and the kon is 22500 M⁻¹ s⁻¹. The t½ was 66 min.

Take B3: the “100 nM hLEPR-MMH Bound (RU)” value amounted to 47 RU, the Kd was found to be 7.36 nM, the koff was 0.00018 s⁻¹ and the kon was found to be 24500 M⁻¹ s⁻¹. The same molecule gave a t½ of 64 min.

With B4, the “100 nM hLEPR-MMH Bound (RU)” value was determined as 48 RU, binding was put at a Kd of 6.48 nM, the dissociation rate constant (koff) turned out to be 0.000159 s⁻¹ and the on-rate (kon) came to 24600 M⁻¹ s⁻¹. This molecule showed a t½ of 73 min.

For B5, the “100 nM hLEPR-MMH Bound (RU)” value came out at 41 RU, binding was put at a Kd of 6.62 nM, the off-rate (koff) was 0.000165 s⁻¹ and the association rate constant (kon) was 24900 M⁻¹ s⁻¹. The same molecule showed a t½ of 70 min.

For the molecule B6, the “100 nM hLEPR-MMH Bound (RU)” value stood at 45 RU, the Kd turned out to be 5.91 nM, the koff was 0.000151 s⁻¹ and the kon worked out at 25400 M⁻¹ s⁻¹. Also, the t½ was 77 min.

On to B7, for which the “100 nM hLEPR-MMH Bound (RU)” value turned out to be 45 RU, the Kd was found to be 7.31 nM, the koff was determined as 0.000182 s⁻¹ and the kon stood at 24900 M⁻¹ s⁻¹. The molecule also displayed a t½ of 64 min.

A further test deals with T2, Macaca Fascicularis LEPR extracellular domain expressed with a C-terminal myc-myc-hexahistidine tag (Macaca fascicularis, UniProt Q9MYL0 22-837 (rhesus entry)).
T2 construct: Monomeric reagent; the whole entry is the construct with its tag; also called mfLEPR-MMH
T2 sequence (Q9MYL0 other isoform, or with tags, fused parts or gaps): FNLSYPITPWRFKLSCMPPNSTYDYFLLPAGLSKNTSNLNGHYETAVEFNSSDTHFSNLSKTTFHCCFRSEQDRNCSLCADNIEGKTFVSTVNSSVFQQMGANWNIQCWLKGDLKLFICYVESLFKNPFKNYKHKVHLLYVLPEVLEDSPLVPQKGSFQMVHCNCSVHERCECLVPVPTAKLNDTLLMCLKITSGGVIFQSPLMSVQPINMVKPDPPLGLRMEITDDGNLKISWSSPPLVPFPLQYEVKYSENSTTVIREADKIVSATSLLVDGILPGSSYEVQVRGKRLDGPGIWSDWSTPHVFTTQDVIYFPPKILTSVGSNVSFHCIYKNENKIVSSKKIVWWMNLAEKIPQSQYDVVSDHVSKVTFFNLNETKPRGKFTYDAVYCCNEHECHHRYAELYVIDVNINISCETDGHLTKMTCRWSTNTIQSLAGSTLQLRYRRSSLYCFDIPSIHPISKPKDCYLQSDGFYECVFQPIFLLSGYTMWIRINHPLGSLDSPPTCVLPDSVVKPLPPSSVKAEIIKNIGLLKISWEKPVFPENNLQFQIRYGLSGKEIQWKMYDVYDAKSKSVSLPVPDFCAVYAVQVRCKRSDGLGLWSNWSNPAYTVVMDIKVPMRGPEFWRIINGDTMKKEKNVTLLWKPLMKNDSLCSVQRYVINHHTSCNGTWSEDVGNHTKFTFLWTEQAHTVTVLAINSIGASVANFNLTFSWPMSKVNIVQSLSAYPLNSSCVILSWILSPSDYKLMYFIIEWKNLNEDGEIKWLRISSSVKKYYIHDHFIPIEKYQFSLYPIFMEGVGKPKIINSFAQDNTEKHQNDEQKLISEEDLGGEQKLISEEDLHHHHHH
Described as above. The procedure: as §1
Consider B1, for which the “100 nM mfLEPR-MMH Bound (RU)” value was 103 RU, the Kd was determined as 2.93 nM, the koff came out at 0.000128 s⁻¹ and the kon was found to be 43600 M⁻¹ s⁻¹. This molecule also had a t½ of 90 min.

With B2, the “100 nM mfLEPR-MMH Bound (RU)” value is 112 RU, the Kd stood at 2.74 nM, the dissociation rate constant (koff) is 0.000126 s⁻¹ and the on-rate (kon) was 45900 M⁻¹ s⁻¹. The same molecule registered a t½ of 92 min.

In the case of B3, the “100 nM mfLEPR-MMH Bound (RU)” value is 112 RU, the equilibrium dissociation constant (Kd) was found to be 2.69 nM, the koff is 0.000121 s⁻¹ and the kon was 45000 M⁻¹ s⁻¹. This molecule came in with a t½ of 95 min.

With B4, the “100 nM mfLEPR-MMH Bound (RU)” value turned out to be 114 RU, the Kd was 3.02 nM, the koff turned out to be 0.000124 s⁻¹ and the kon was determined as 41100 M⁻¹ s⁻¹. Further, the t½ came to 93 min.

In the case of B5, the “100 nM mfLEPR-MMH Bound (RU)” value turned out to be 102 RU, the dissociation constant Kd worked out at 2.75 nM, the koff worked out at 0.000123 s⁻¹ and the kon was 44900 M⁻¹ s⁻¹. This molecule returned a t½ of 94 min.

Turning to B6, the “100 nM mfLEPR-MMH Bound (RU)” value was 110 RU, binding was characterised by a dissociation constant (Kd) of 2.86 nM, the koff turned out to be 0.000124 s⁻¹ and the on-rate constant (kon) worked out at 43300 M⁻¹ s⁻¹. For the same molecule, the t½ is 93 min.

Consider B7, for which the “100 nM mfLEPR-MMH Bound (RU)” value was 111 RU, the equilibrium dissociation constant (Kd) was 3.04 nM, the dissociation rate constant (koff) was found to be 0.000136 s⁻¹ and the kon was 44800 M⁻¹ s⁻¹. This molecule also displayed a t½ of 85 min.

For a further test, the target named is T1, human LEPR extracellular domain …. The test is described as follows: SPR Biacore 4000, bsAb captured by anti-human Fc, 37 C. Here is the method:
as §1
As for B1, the “100 nM hLEPR-MMH Bound (RU)” value is 67 RU, the equilibrium dissociation constant (Kd) came out at 21.2 nM, the off-rate (koff) was found to be 0.000762 s⁻¹ and the kon came to 35800 M⁻¹ s⁻¹. For the same molecule, the t½ amounted to 15 min.

Regarding B2, the “100 nM hLEPR-MMH Bound (RU)” value is 74 RU, the Kd was 18.6 nM, the dissociation rate constant (koff) was found to be 0.000633 s⁻¹ and the on-rate (kon) came to 34000 M⁻¹ s⁻¹. This molecule gave a t½ of 18 min.

In the case of B3, the “100 nM hLEPR-MMH Bound (RU)” value was found to be 75 RU, the Kd amounted to 21.4 nM, the koff came to 0.000818 s⁻¹ and the kon was 38200 M⁻¹ s⁻¹. For the same molecule, the t½ came out at 14 min.

With B4, the “100 nM hLEPR-MMH Bound (RU)” value is 78 RU, the Kd amounted to 16.2 nM, the off-rate (koff) stood at 0.000597 s⁻¹ and the association rate constant (kon) is 36800 M⁻¹ s⁻¹. The molecule also gave a t½ of 19 min.

B5: the “100 nM hLEPR-MMH Bound (RU)” value stood at 66 RU, binding was characterised by a dissociation constant (Kd) of 20.8 nM, the koff came out at 0.000805 s⁻¹ and the kon came out at 38600 M⁻¹ s⁻¹. Besides, the t½ worked out at 14 min.

Take B6: the “100 nM hLEPR-MMH Bound (RU)” value worked out at 74 RU, the Kd stood at 16.6 nM, the koff was found to be 0.000589 s⁻¹ and the on-rate (kon) was determined as 35400 M⁻¹ s⁻¹. Further, the t½ was 20 min.

B7: the “100 nM hLEPR-MMH Bound (RU)” value came out at 72 RU, the dissociation constant Kd is 21.5 nM, the koff was found to be 0.000763 s⁻¹ and the kon turned out to be 35500 M⁻¹ s⁻¹. The same molecule had a t½ of 15 min.

The target of another test is T2, Macaca Fascicularis LEPR extracellular …. Described as above. Here is the method: as §1
Consider B1, for which the “100 nM mfLEPR-MMH Bound (RU)” value is 163 RU, the dissociation constant (Kd) was determined as 5.42 nM, the koff was 0.000559 s⁻¹ and the association rate constant (kon) was 103000 M⁻¹ s⁻¹. This molecule came in with a t½ of 21 min.

For the molecule B2, the “100 nM mfLEPR-MMH Bound (RU)” value amounted to 172 RU, the dissociation constant (Kd) amounted to 5.57 nM, the dissociation rate constant (koff) is 0.000529 s⁻¹ and the on-rate constant (kon) came out at 94900 M⁻¹ s⁻¹. The t½ came out at 22 min.

For the molecule B3, the “100 nM mfLEPR-MMH Bound (RU)” value was found to be 175 RU, the equilibrium dissociation constant (Kd) came out at 5.6 nM, the koff is 0.000572 s⁻¹ and the association rate constant (kon) is 102000 M⁻¹ s⁻¹. The molecule further registered a t½ of 20 min.

With B4, the “100 nM mfLEPR-MMH Bound (RU)” value turned out to be 178 RU, the Kd came to 5.22 nM, the dissociation rate constant (koff) was found to be 0.000517 s⁻¹ and the on-rate constant (kon) was determined as 99100 M⁻¹ s⁻¹. Moreover, the t½ was 22 min.

Turning to B5, the “100 nM mfLEPR-MMH Bound (RU)” value came to 162 RU, the Kd is 5.48 nM, the koff was 0.000566 s⁻¹ and the kon came to 103000 M⁻¹ s⁻¹. The t½ came out at 20 min.

B6: the “100 nM mfLEPR-MMH Bound (RU)” value was found to be 173 RU, the Kd is 5.05 nM, the dissociation rate constant (koff) worked out at 0.000522 s⁻¹ and the kon was determined as 103000 M⁻¹ s⁻¹. For the same molecule, the t½ was 22 min.

Take B7: the “100 nM mfLEPR-MMH Bound (RU)” value was determined as 171 RU, binding was characterised by a dissociation constant (Kd) of 5.74 nM, the koff is 0.000551 s⁻¹ and the kon amounted to 95900 M⁻¹ s⁻¹. Moreover, the t½ came out at 21 min.

The record behind these values is US20240158497A1 (published 2024).
